For experiment [1], the target named is human leukemia inhibitory factor (LIF), soluble (human) (UniProt P15018). As to the kind of experiment: yeast surface display, flow cytometry; Score column of the table of sorted gp130 CBM variants (the filing gives 100 pM and 1 nM human LIF for the gp130 binding scores).
Experiment [2] shares this target. As to the kind of experiment: yeast surface display, flow cytometry; score from summed fluorescence at 10 pM and 100 pM human LIF, normalized to wild-type and to expression. (In general: A flow cytometer gives signals particle by particle.)
Experiment [3] shares this target. Kind of experiment: yeast surface display, flow cytometry; soluble human LIF titrated (0.001 to 100 nM), detected with a fluorescent antibody.

Sequence of human leukemia inhibitory factor (LIF), soluble (human) (P15018 23-202 limits assumed): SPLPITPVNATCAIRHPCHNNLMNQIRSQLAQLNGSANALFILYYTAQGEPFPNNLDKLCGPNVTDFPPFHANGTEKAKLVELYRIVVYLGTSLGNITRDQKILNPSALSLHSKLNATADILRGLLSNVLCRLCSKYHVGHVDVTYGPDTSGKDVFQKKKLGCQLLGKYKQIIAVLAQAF

In experiment [1], ELDI (receptor) came in with a Score (binding score) of 15.9. On the same count and under the same terms, the value for ELRDSLE (receptor) was 23.6. With PDD (receptor), in experiment [2], the Score (normalized binding score) worked out at 7.71. Besides, in experiment [3], the EC50 (read off the curve) – broadly, the concentration that produces a half-maximal response – amounted to 400 pM. PRDSAID (receptor) yielded a Score (normalized binding score) in experiment [2] of 15.8. In the case of PVVIDN (receptor), in experiment [2], the Score (normalized binding score) worked out at 13.9.

Values taken from patent US20210300992A1.
